Values quoted from earlier work, collected in patent US20230023414A1, “METHODS AND DEVICES FOR TREATING A DISEASE WITH BIOTHERAPEUTICS” (PROGENITY, INC., priority 2018, published 2023).

Settings: SC administration

| Molecule | Approved Dosing Info: Bio Avail [%] | Baseline dose: Bioavail. (dose info for non-approved agents from clinical trial information) [%] |
| --- | --- | --- |
| pegfilgrastim (protein, UniProt P09919 31-207, looked up, N-terminal Met, 20 kDa PEG) Granulocyte …: TPLGPASSLPQSFLLKCLEQVRKIQGDGAALQEKLVSECATYKLCHPEELVLLGHSLGIPWAPLSSCPSQALQLAGCLSQLHSGLFLYQGLLQALEGISPELGPTLDTLQLDVADFATTIWQQMEELGMAPALQPTQGAMPAFASAFQRRAGGVLVASHLQSFLEVSYRVLRHLAQP | 70 |  |
| concizumab (antibody, chains of the INN, looked up, V domains shown) VH: EVQLVESGGGLVKPGGSLRLSCAASGFTFSNYAMSWVRQTPEKRLEWVATISRSGSYSYFPDSVQGRFTISRDNAKNSLYLQMNSLRAEDTAVYYCARLGGYDEGDAMDSWGQGTTVTVSS VL: DIVMTQTPLSLSVTPGQPASISCKSSQSLLESDGKTYLNWYLQKPGQSPQLLIYLVSILDSGVPDRFSGSGSGTDFTLKISRVEAEDVGVYYCLQATHFPQTFGGGTKVEIK |  | 93.0 |
| emicizumab (antibody, chains of the INN, looked up, V domains shown) VH: QVQLVQSGSELKKPGASVKVSCKASGYTFTDNNMDWVRQAPGQGLEWMGDINTRSGGSIYNEEFQDRVIMTVDKSTDTAYMELSSLRSEDTATYHCARRKSYGYYLDEWGEGTLVTVSS VL: DIQMTQSPSSLSASVGDRVTITCKASRNIERQLAWYQQKPGQAPELLIYQASRKESGVPDRFSGSRYGTDFTLTISSLQPEDIATYYCQQYSDPPLTFGGGTKVEIK VH2: QVQLVESGGGLVQPGGSLRLSCAASGFTFSYYDIQWVRQAPGKGLEWVSSISPSGQSTYYRREVKGRFTISRDNSKNTLYLQMNSLRAEDTAVYYCARRTGREYGGGWYFDYWGQGTLVTVSS VL2: DIQMTQSPSSLSASVGDRVTITCKASRNIERQLAWYQQKPGQAPELLIYQASRKESGVPDRFSGSRYGTDFTLTISSLQPEDIATYYCQQYSDPPLTFGGGTKVEIK | 85 |  |
| evolocumab (antibody, chains of the INN, looked up, V domains shown) VH: EVQLVQSGAEVKKPGASVKVSCKASGYTLTSYGISWVRQAPGQGLEWMGWVSFYNGNTNYAQKLQGRGTMTTDPSTSTAYMELRSLRSDDTAVYYCARGYGMDVWGQGTTVTVSS VL: ESALTQPASVSGSPGQSITISCTGTSSDVGGYNSVSWYQQHPGKAPKLMIYEVSNRPSGVSNRFSGSKSGNTASLTISGLQAEDEADYYCNSYTSTSMVFGGGTKLTVL | 82 |  |
